In PMC2654063, “Three New Structures of Left-Handed RadA Helical Filaments: Structural Flexibility of N-Terminal Domain Is Critical for Recombinase Activity” (PLoS ONE, 2009):
Residue numbers refer to the chain shown, from its start. In names and notes the source's numbering stands.

B1: SsoRadA (Sulfolobus solfataricus RadA) (Saccharolobus solfataricus P2) (protein)
chain: MSNEVEQKKNIKTINDLPGISQTVINKLIEAGYSSLETLAVASPQDLSVAAGIPLSTAQKIIKEARDALDIRFKTALEVKKERMNVKKISTGSQALDGLLAGGIETRTMTEFFGEFGSGKTQLCHQLSVNVQLPPEKGGLSGKAVYIDTEGTFRWERIENMAKALGLDIDNVMNNIYYIRAINTDHQIAIVDDLQELVSKDPSIKLIVVDSVTSHFRAEYPGRENLAVRQQKLNKHLHQLTRLAEVYDIAVIITNQVMARPDMFYGDPTVAVGGHTLYHVPGIRIQLKKSRGNRRIARVVDAPHLPEGEVVFALTEEGIRDAEE
notes: purified recombinant protein; homo-oligomeric nucleoprotein filament on ssDNA; F73, R72, R83 given
B2: SsoRadA (Sulfolobus solfataricus RadA) (Saccharolobus solfataricus P2; R72A) (protein)
chain: B1 chain with R72A
notes: as for B1
B3: SsoRadA (Sulfolobus solfataricus RadA) (Saccharolobus solfataricus P2; R72G) (protein)
chain: B1 chain with R72G
notes: as for B1
B4: SsoRadA (Sulfolobus solfataricus RadA) (Saccharolobus solfataricus P2; R72P) (protein)
chain: B1 chain with R72P
notes: as for B1

The proteins below were run on Nc1ncnc2c1ncn2[C@@H]1O[C@H](COP(=O)(O)OP(=O)(O)OP(=O)(O)O)[C@@H](O)[C@H]1O (assay: purified protein). Settings: with ssDNA; labelled compound.
Format: biochemical, Saccharolobus solfataricus
For B1, the Km was 398 ± 52 µM and the kcat was 0.000617 ± 5e-05 s⁻¹. B2 gave a Km of 37 ± 11 µM and a kcat of 0.000183 ± 3.3e-05 s⁻¹. Protein B3 has a Km of 176 ± 23 µM and a kcat of 0.000267 ± 1.7e-05 s⁻¹. B4 gave a Km of 143 ± 10 µM and a kcat of 0.000267 ± 1.7e-05 s⁻¹.
